# Source: patent publication US20240150473A1, “MODULATION OF WNT SIGNALING IN GASTROINTESTINAL DISORDERS” (Surrozen Operating, Inc., priority 2021, published 2024)
# B1: R2M3-26: Fzd1,2,5,7,8 pan specific Wnt mimetic targeting FZD1,2,5,7,8 and LRP6 (protein)
# light: DVQLVESGGGLVQAGGSLRLACAGSGRIFAIYDIAWYRHPPGNQRELVAMIRPVVTEIDYADSVKGRFTISRNNAMKTVYLQMNNLKPEDTAVYYCNAKRPWGSRDEYWGQGTQVTVSSGSGSGQAVVLQEPSLSVSPGGTVTLTCGLSSGSVSTNYYPSWYQQTPGQAPRTLIYYTNTRSSDVPERFSGSIVGNKAALTITGAQPDDESVYFCLLYLGRGIWVFGGGTKLTVLGQPKAAPSVTLFPPSSEELQANKATLVCLISDFYPGAVTVAWKADSSPVKAGVETTTPSKQSNNKYAASSYLSLTPEQWKSHRSYSCQVTHEGSTVEKTVAPTECS
# heavy: EVQLVQSGAEVKKPGASVKVSCKASGYTFTSYGISWVRQAPGQGLEWMGWISAYNGNTNYAQKLQGRVTMTTDTSTSTAYMELRSLRSDDTAVYYCASSKEKATYYYGMDVWGQGTTVTVSSASTKGPSVFPLAPSSKSTSGGTAALGCLVKDYFPEPVTVSWNSGALTSGVHTFPAVLQSSGLYSLSSVVTVPSSSLGTQTYICNVNHKPSNTKVDKKVEPKSCDKTHTCPPCPAPEAAGGPSVFLFPPKPKDTLMISRTPEVTCVVVDVSHEDPEVKFNWYVDGVEVHNAKTKPREEQYNSTYRVVSVLTVLHQDWLNGKEYKCKVSNKALGAPIEKTISKAKGQPREPQVYTLPPSREEMTKNQVSLTCLVKGFYPSDIAVEWESNGQPENNYKTTPPVLDSDGSFFLYSKLTVDKSRWQQGNVFSCSVMHEALHNHYTQKSLSLSPGK
# What was measured:
# [1] = tested on: DSS induced acute colitis in C57BL6/J mice; experiment: DSS induced acute colitis model; format: in vivo, mouse; conditions: two doses day 4 and day 7, evaluated day 10
# Method: 7- to 8-week-old female C57BL6/J mice were fed with 4% (wt/vol) Dextran Sulfate Sodium (DSS, MP Biomedicals, molecular weight 36-50 kDa, Ref #160110) in drinking water from day 1 to day 7 to induce colitis and were switched to 1% DSS from day 8. […] Animals were terminated on day 10, allowing a 6-day course of protein treatment, and the colon was harvested for histology and RT-qPCR. […] The disease activity index (DAI) was calculated based on the average score of weight loss, stool consistency and the degree of intestinal bleeding (Wirtz Stefan et al., 2017). Scoring system by grading was on a scale of 0 to 4 using the following parameters: loss of weight (0, 0-1%; 1, 1-6%; 2, 6-12%; 3, 12-18%; 4, >18%), stool consistency (0, normal; 1, soft but still formed; 2, soft; 3, very soft, wet; 4, watery diarrhea) and intestine bleeding (0-1, negative hemoccult; 2, positive hemoccult; 3, blood traces in stool visible; 4, gross rectal bleeding).
# Small intestine and colon were extracted and, after removing fecal content, weighted and length measured. The desired small intestine segments (duodenum, jejunum, ileum) and colon segments (ascending, transverse and descending colon) were cut out and fixed directly in 10% neutral buffered formalin (NBF) overnight. Tissues were then transferred to 70% ethanol before paraffin embedding. Paraffin tissue blocks were then sectioned to […] thickness and stained with hematoxylin and eosin (H&E) for histology analysis. Pathology reading was performed by an independent pathologist.
# […] Groups of mice were either untreated, treated with an isotype control antibody (anti-GFP), or treated with the indicated engineered Wnt agonist once on day 4 or twice on day 4 and 7. […]
# The 123 mice total were grouped: (Day3=13, day4=13, day5=26, day6=24, day7=26, day10=21), with 91 used for histology endpoints, and 21 for scRNA-seq (group eliminated because of machinery). Daily food intake, BW, fecal score, and occult blood were measured. […]
# [2] = tested on: colon tissue markers (ZO-1, Ki67, Axin2, Cdkn3, S100A9, CD45); experiment: RNA in situ hybridization and immunohistochemistry/immunofluorescence of colon tissue, DSS model; format: in vivo, mouse; conditions: day 10 of the DSS model
# Description: Expression of mRNA was detected by RNAscope in situ hybridization (ACD Bio). RNAscope probes used are listed below. For colorimetric visualization, standard RNAscope® 2.5 HD Assay-Red protocol (www.acdbio.com) was followed, and images were acquired on a Leica DMi8 microscope equipped with a DFC7000T color camera. For fluorescent RNAscope in situ hybridization, standard RNAscope Multiplex Fluorescent Reagent Kit v2 Assay protocol was followed (ACD Bio Document #323100-USM) and coupled with the TSA Plus Cyanine 3 and 5 Systems. Fluorescent images were acquired with a Leica Thunder imaging system.
# In brief, five-micron thick formalin fixed paraffin embedded tissue sections on slides were deparaffinized followed by citrate buffer (pH 6) antigen retrieval in a steamer. Slides were then washed thoroughly in tap water followed by 1× wash in PBST. Subsequently, tissue sections were blocked with serum free protein block (Agilent, X090930-2) for one hour at room temperature followed by incubation in primary antibodies. After primary antibody incubation, tissue sections were washed in 0.1% TX-100 in PBS (PBST) at least three times followed by incubation in secondary antibody. Afterwards, tissue sections were washed with PBST, and coverslips were mounted with Vectashield Vibrance antifade mounting medium with DAPI (Vector Laboratories, H-1800).
# [3] = tested on: Mouse small intestinal organoids; experiment: Organoid culture and proliferation assay; format: cell-based; conditions: organoids treated with Porcupine inhibitor IWP2
# Method: Mouse small intestinal organoids were maintained in mouse IntestiCult™ Organoid Growth Medium ([…] technologies) and passaged once a week until the date of assay for Wnt mimetic activity (H. Chen, Lu, Lee, & Li, 2020). To assay for organoid proliferation, organoids were dissociated with Gentle Cell Dissociation Reagent ([…] technologies) for 10 min with shaking, washed 2× in cold PBS (Gibco) and resuspended 1:1 in Matrigel (Corning) on ice. 25 ul of cell resuspension in Matrigel was seeded to the center of each well on a prewarmed 48-well tissue culture plate and let solidify for 5 min at 37 degrees. 300 ul of Basal Media (Table 10), Basal Media+IWP2+anti-βGal or Basal Media+IWP2+Wnt mimetic was applied to the wells. Each condition included 5-6 repeats. Media and treatments were changed once on Day 4 after plating. Images of the 3D cultured organoids were acquired on Day 7.
# Mouse small intestinal organoids were treated with the Porcupine inhibitor IWP2 to inhibit endogenous Wnt ligand secretion in the cultured organoid. When these organoids were subject to no protein treatment or were treated with a control anti-β-gal IgG, the organoids were not maintained and quickly degenerated.
molecule,measurement,setting,value
B1,histology (colitis) score,"[1]; reduced from 4.75, see WO 2020/185960A1",2.0
same,crypt architecture and tissue inflammation,[1]; versus PBS or anti-GFP,restored crypt architecture with less tissue inflammation
same,Ki67 expression in duodenum and colon,[2],did not lead to an expansion of Ki67
same,organoid proliferation and growth,[3],able to stimulate cell proliferation
